Results on 8 molecules are retold here after publication PMC9882070 (bioRxiv, 2023).

Holding throughout (assay): ThT fluorescence aggregation assay + negative-stain TEM
Data set [1] has as its target R1R3Ac, R1R3 tau peptide chemically acetylated with N-succinimidyl acetate.
The target in data set [2] is R2R3Ac, R2R3 tau peptide chemically acetylated with N-succinimidyl acetate.
Data set [3] deals with the molecule itself.

A value given as a limit tells only on which side of the number the result lay.

Regarding “R1R3Ac, R1R3 tau peptide chemically acetylated with N-succinimidyl acetate”, the t1/2max of ThT aggregation in data set [1] was 39.8 h. Turning to “R2R3Ac, R2R3 tau peptide chemically acetylated with N-succinimidyl acetate”, in data set [2], the t1/2max of ThT aggregation turned out to be 98.9 h.

TENLQHQPGGGQVQIINK [R1R2_12Q tau peptide]: the “t1/2max of ThT aggregation” value in data set [3] was under 36 h.

Turning to TENLQHQPGGGKVQIVYQ [R1R3_13Q tau peptide], the binding result in data set [3] was “binds”. Take TENLKHQPGGGQVQIVYQ [R1R3_23Q tau peptide]: the “t1/2max of ThT aggregation” value in data set [3] was under 6 h. For TENLQHQPGGGQVQIVYK [R1R3_12Q tau peptide], in data set [3], the “t1/2max of ThT aggregation” value was under 36 h. KDNIQHVPGGGSVQIVYK [R2R3_2Q tau peptide]: the “t1/2max of ThT aggregation” value in data set [3] is 72 ± 7.2 h. With KDNIKHVPGGGSVQIVYQ [R2R3_3Q tau peptide], the “t1/2max of ThT aggregation” value in data set [3] worked out at 3.84 h.
